Laboratory results taken from US8383350.

Assays:
[1] = biological target: humanized 12G8 anti-IL-10 antibody; experiment: sandwich ELISA: capture 13G4 0.5 ug/mL, humanized 12G8 100 ng/mL, detection biotinylated 11F12 1.0 ug/mL
[2] = biological target: humanized 12G8 anti-IL-10 antibody; experiment: sandwich ELISA: capture 13G4 0.5 ug/mL, humanized 12G8 100 ng/mL, detection biotinylated 11F12 2.0 ug/mL
[3] = biological target: humanized 12G8 anti-IL-10 antibody; experiment: sandwich ELISA: capture 13G4 2.0 ug/mL, humanized 12G8 100 ng/mL, detection biotinylated 11F12 1.0 ug/mL
[4] = biological target: humanized 12G8 anti-IL-10 antibody; experiment: sandwich ELISA: capture 13G4 1.0 ug/mL, humanized 12G8 100 ng/mL, detection biotinylated 11F12 2.0 ug/mL
[5] = biological target: humanized 12G8 anti-IL-10 antibody; experiment: sandwich ELISA: capture 13G4 2.0 ug/mL, humanized 12G8 100 ng/mL, detection biotinylated 11F12 2.0 ug/mL
[6] = biological target: humanized 12G8 anti-IL-10 antibody; experiment: sandwich ELISA: capture 13G4 2.0 ug/mL, humanized 12G8 100 ng/mL, detection biotinylated 11F12 0.5 ug/mL
[7] = biological target: humanized 12G8 anti-IL-10 antibody; experiment: blocking ELISA: purified antibody titrated against biotinylated humanized 12G8, binding to coated human IL-10 read
[8] = biological target: humanized 12G8 anti-IL-10 antibody; experiment: sandwich ELISA: capture 13G4 1.0 ug/mL, humanized 12G8 100 ng/mL, detection biotinylated 11F12 1.0 ug/mL
[9] = biological target: humanized 12G8 anti-IL-10 antibody; experiment: sandwich ELISA: capture 13G4 0.5 ug/mL, humanized 12G8 100 ng/mL, detection biotinylated 11F12 0.5 ug/mL
[10] = biological target: humanized 12G8 anti-IL-10 antibody; experiment: sandwich ELISA: capture 13G4 1.0 ug/mL, humanized 12G8 100 ng/mL, detection biotinylated 11F12 0.5 ug/mL

Row | Signal:Noise Ratio [1] | Signal:Noise Ratio [2] | Signal:Noise Ratio [3] | Signal:Noise Ratio [4] | Signal:Noise Ratio [5] | Signal:Noise Ratio [6] | IC50 [7] [nM] | Signal:Noise Ratio [8] | Signal:Noise Ratio [9] | Signal:Noise Ratio [10] | Binder
1 | 8 | 8 | 7.5 | 25 | 20 | 22 | 2 | 40 | 10 | 32 | JL11.11F12.C4 (antibody, V domains shown) VH: EVQVQQSGPELVKPGASMKISCKASGYSFTGYTMNWVKQSHGKTLEWIGLINPYNGGTTYNQKFKGKATLTVDKSSSTAYMELLSLTSEDSAVYYCARRGSGYAMDYWGQGTSVTVS VL: QIVLTQSPAIMSASLGERVAMTCTASSSVSSHYLHWYQQKPGSSPKLWIYSTSNLASGVPARFSGSGSGTSYSLTISSMEAEDAATYYCHQYHRSPWTFGGGTKLEIKR
2 | – | – | – | – | – | – | 1 | – | – | – | JL11.13G4.B11 (antibody, V domains shown) VH: EVKLVESGGGLVKPGGSLKLSCAASGFAFSSYDMSWVRQTPEKRLEWVASISSDGSYTYYPDTVKGRFTISRDNARNTLNLQMSSLRSEDTALYFCARQDGYYLDYWGQGTTLTVSS VL: EIVLTQSPALMAASPGEKVTITCSVSSSISSSKLYWYQQKSETSPKPWIYGTSNLASGVPVRFSGSGSGTSYSLTISSMEAEDAATYYCQQWSSYPLTFGAGTKLELKR
